Measured values: paper PMC7857404

Molecular target: SARS-CoV-2-3Q-FL spike (without 2P) (SARS-CoV-2) (UniProt P0DTC2)
Assay: cryo-EM structure

Substance: SARS-CoV-2-3Q-FL spike (without 2P) (from UniProt P0DTC2 14-1273) (natural protein)
- stoichiometry N: 3
